Source: patent US20230250154A1 (CYTONICS, published 2023)
Where a chain is given by its changes, count along the chain named. Numbers in names are those of the source.

T1: ADAMTS5 (human, UniProt Q9UNA0 262-622, limits assumed)
T1 sequence (looked up): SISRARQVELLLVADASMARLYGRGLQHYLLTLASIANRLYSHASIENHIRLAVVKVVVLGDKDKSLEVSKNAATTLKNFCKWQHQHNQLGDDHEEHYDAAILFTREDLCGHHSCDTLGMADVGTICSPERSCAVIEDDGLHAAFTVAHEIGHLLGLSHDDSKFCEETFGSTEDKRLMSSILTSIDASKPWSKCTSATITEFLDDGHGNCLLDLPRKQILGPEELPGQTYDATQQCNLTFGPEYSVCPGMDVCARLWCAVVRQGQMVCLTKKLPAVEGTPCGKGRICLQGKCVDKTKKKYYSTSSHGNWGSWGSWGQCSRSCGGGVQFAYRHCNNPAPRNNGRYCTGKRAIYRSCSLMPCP

T2: ADAMTS4 (human, UniProt O75173 213-685, limits assumed)
T2 sequence (looked up): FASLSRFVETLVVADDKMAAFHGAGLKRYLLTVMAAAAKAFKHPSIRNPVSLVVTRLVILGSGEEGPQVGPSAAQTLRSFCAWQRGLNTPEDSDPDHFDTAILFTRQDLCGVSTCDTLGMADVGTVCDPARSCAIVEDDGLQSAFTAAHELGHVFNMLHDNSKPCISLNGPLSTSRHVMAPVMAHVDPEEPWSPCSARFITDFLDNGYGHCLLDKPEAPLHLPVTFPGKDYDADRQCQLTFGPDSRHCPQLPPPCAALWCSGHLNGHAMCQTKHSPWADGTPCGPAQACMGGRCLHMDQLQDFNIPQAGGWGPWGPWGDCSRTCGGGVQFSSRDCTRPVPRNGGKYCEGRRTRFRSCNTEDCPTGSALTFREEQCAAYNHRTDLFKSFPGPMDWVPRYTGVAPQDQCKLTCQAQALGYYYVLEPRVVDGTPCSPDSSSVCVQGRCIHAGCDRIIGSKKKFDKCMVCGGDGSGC

B1: Variant A2M, bait region SEQ ID NO 88 (other)
chain: SVSGKPQYMVLVPSLLHTETTEKGCVLLSYLNETVTVSASLESVRGNRSLFTDLEAENDVLHCVAFAVPKSSSNEEVMFLTVQVKGPTQEFKKRTTVMVKNEDSLVFVQTDKSIYKPGQTVKFRVVSMDENFHPLNELIPLVYIQDPKGNRIAQWQSFQLEGGLKQFSFPLSSEPFQGSYKVVVQKKSGGRTEHPFTVEEFVLPKFEVQVTVPKIITILEEEMNVSVCGLYTYGKPVPGHVTVSICRKYSDASDCHGEDSQAFCEKFSGQLNSHGCFYQQVKTKVFQLKRKEYEMKLHTEAQIQEEGTVVELTGRQSSEITRTITKLSFVKVDSHFRQGIPFFGQVRLVDGKGVPIPNKVIFIRGNEANYYSNATTDEHGLVQFSINTTNVMGTSLTVRVNYKDRSPCYGYQWVSEEHEEAHHTAYLVFSPSKSFVHLEPMSHELPCGHTQTVQAHYILNGGTLLGLKKLSFYYLIMAKGGIVRTGTHGLLVKQEDMKGHFSISIPVKSDIAPVARLLIYAVLPTGDVIGDSAKYDVENCLANKVDLSFSPSQSLPASHAHLRVTAAPQSVCALRAVDQSVLLMKPDAELSASSVYNLLPEKDLTGFPGPLNDQDDEDCINRHNVYINGITYTPVSSTNEKDMYSFLEDMGLKAFTNSKIRKPKMCPQLEQYEMHGPEGLRVGIPENFFGVFYESDVMGRGHARLVHVEEPHTKLLRKYFPETWIWDLVVVNSAGVAEVGVTVPDTITEWKAGAFCLSEDAGLGISSTASLRAFQPFFVELTMPYSVIRGEAFTLKATVLNYLPKCIRVSVQLEASPAFLAVPVEKEQAPHCICANGRQTVSWAVTPKSLGNVNFTVSAEALESQELCGTEVPSVPEHGRKDTVIKPLLVEPEGLEKETTFNSLLCPSGGEVSEELSLKLPPNVVEESARASVSVLGDILGSAMQNTQNLLQMPYGCGEQNMVLFAPNIYVLDYLNETQQLTPEIKSKAIGYLNTGYQRQLNYKHYDGSYSTFGERYGRNQGNTWLTAFVLKTFAQARAYIFIDEAHITQALIWLSQRQKDNGCFRSSGSLLNNAIKGGVEDEVTLSAYITIALLEIPLTVTHPVVRNALFCLESAWKTAQEGDHGSHVYTKALLAYAFALAGNQDKRKEVLKSLNEEAVKKDNSVHWERPQKPKAPVGHFYEPQAPSAEVEMTSYVLLAYLTAQPAPTSEDLTSATNIVKWITKQQNAQGGFSSTQDTVVALHALSKYGAATFTRTGKAAQVTIQSSGTFSSKFQVDNNNRLLLQQVSLPELPGEYSMKVTGEGCVYLQTSLKYNILPEKEEFPFALGVQTLPQTCDEPKAHTSFQISLSVSYTGSRSASNMAIVDVKMVSGFIPLKPTVKMLERSNHVSRTEVSSNHVLIYLDKVSNQTLSLFFTVLQDVPVRDLKPAIVKVYDYYETDEFAIAEYNAPCSKDLGNADYKDDDDKGASHHHHHH
B2: Variant A2M, bait region SEQ ID NO 94 (other)
chain: B1 chain with I684T, P685E, E686G, N687E, F688A, F689R, V691S
B3: Variant A2M, bait region SEQ ID NO 89 (other)
chain: B1 chain with I684K, P685E, N687E, F688G, F689L, V691S
B4: Variant A2M, bait region SEQ ID NO 93 (other)
chain: B1 chain with I684V, P685S, E686Q, N687E, F688L, F689G, G690Q, V691R
B5: Variant A2M, bait region SEQ ID NO 97 (other)
chain: B1 chain with I684G, P685E, N687G, F688V, F689E, G690E, V691G
B6: Variant A2M, bait region SEQ ID NO 95 (other)
chain: B1 chain with I684T, P685S, N687D, F688L, F689V, G690V, V691Q
B7: Variant A2M, bait region SEQ ID NO 86 (other)
chain: SVSGKPQYMVLVPSLLHTETTEKGCVLLSYLNETVTVSASLESVRGNRSLFTDLEAENDVLHCVAFAVPKSSSNEEVMFLTVQVKGPTQEFKKRTTVMVKNEDSLVFVQTDKSIYKPGQTVKFRVVSMDENFHPLNELIPLVYIQDPKGNRIAQWQSFQLEGGLKQFSFPLSSEPFQGSYKVVVQKKSGGRTEHPFTVEEFVLPKFEVQVTVPKIITILEEEMNVSVCGLYTYGKPVPGHVTVSICRKYSDASDCHGEDSQAFCEKFSGQLNSHGCFYQQVKTKVFQLKRKEYEMKLHTEAQIQEEGTVVELTGRQSSEITRTITKLSFVKVDSHFRQGIPFFGQVRLVDGKGVPIPNKVIFIRGNEANYYSNATTDEHGLVQFSINTTNVMGTSLTVRVNYKDRSPCYGYQWVSEEHEEAHHTAYLVFSPSKSFVHLEPMSHELPCGHTQTVQAHYILNGGTLLGLKKLSFYYLIMAKGGIVRTGTHGLLVKQEDMKGHFSISIPVKSDIAPVARLLIYAVLPTGDVIGDSAKYDVENCLANKVDLSFSPSQSLPASHAHLRVTAAPQSVCALRAVDQSVLLMKPDAELSASSVYNLLPEKDLTGFPGPLNDQDDEDCINRHNVYINGITYTPVSSTNEKDMYSFLEDMGLKAFTNSKIRKPKMCPQLEQYEMHGPEGLRVGSELEGRGSKEEEGLGSIPENFFGVKLRKYFPETWIWDLVVVNSAGVAEVGVTVPDTITEWKAGAFCLSEDAGLGISSTASLRAFQPFFVELTMPYSVIRGEAFTLKATVLNYLPKCIRVSVQLEASPAFLAVPVEKEQAPHCICANGRQTVSWAVTPKSLGNVNFTVSAEALESQELCGTEVPSVPEHGRKDTVIKPLLVEPEGLEKETTFNSLLCPSGGEVSEELSLKLPPNVVEESARASVSVLGDILGSAMQNTQNLLQMPYGCGEQNMVLFAPNIYVLDYLNETQQLTPEIKSKAIGYLNTGYQRQLNYKHYDGSYSTFGERYGRNQGNTWLTAFVLKTFAQARAYIFIDEAHITQALIWLSQRQKDNGCFRSSGSLLNNAIKGGVEDEVTLSAYITIALLEIPLTVTHPVVRNALFCLESAWKTAQEGDHGSHVYTKALLAYAFALAGNQDKRKEVLKSLNEEAVKKDNSVHWERPQKPKAPVGHFYEPQAPSAEVEMTSYVLLAYLTAQPAPTSEDLTSATNIVKWITKQQNAQGGFSSTQDTVVALHALSKYGAATFTRTGKAAQVTIQSSGTFSSKFQVDNNNRLLLQQVSLPELPGEYSMKVTGEGCVYLQTSLKYNILPEKEEFPFALGVQTLPQTCDEPKAHTSFQISLSVSYTGSRSASNMAIVDVKMVSGFIPLKPTVKMLERSNHVSRTEVSSNHVLIYLDKVSNQTLSLFFTVLQDVPVRDLKPAIVKVYDYYETDEFAIAEYNAPCSKDLGNADYKDDDDKGASHHHHHH
B8: Variant A2M, bait region SEQ ID NO 98 (other)
chain: SVSGKPQYMVLVPSLLHTETTEKGCVLLSYLNETVTVSASLESVRGNRSLFTDLEAENDVLHCVAFAVPKSSSNEEVMFLTVQVKGPTQEFKKRTTVMVKNEDSLVFVQTDKSIYKPGQTVKFRVVSMDENFHPLNELIPLVYIQDPKGNRIAQWQSFQLEGGLKQFSFPLSSEPFQGSYKVVVQKKSGGRTEHPFTVEEFVLPKFEVQVTVPKIITILEEEMNVSVCGLYTYGKPVPGHVTVSICRKYSDASDCHGEDSQAFCEKFSGQLNSHGCFYQQVKTKVFQLKRKEYEMKLHTEAQIQEEGTVVELTGRQSSEITRTITKLSFVKVDSHFRQGIPFFGQVRLVDGKGVPIPNKVIFIRGNEANYYSNATTDEHGLVQFSINTTNVMGTSLTVRVNYKDRSPCYGYQWVSEEHEEAHHTAYLVFSPSKSFVHLEPMSHELPCGHTQTVQAHYILNGGTLLGLKKLSFYYLIMAKGGIVRTGTHGLLVKQEDMKGHFSISIPVKSDIAPVARLLIYAVLPTGDVIGDSAKYDVENCLANKVDLSFSPSQSLPASHAHLRVTAAPQSVCALRAVDQSVLLMKPDAELSASSVYNLLPEKDLTGFPGPLNDQDDEDCINRHNVYINGITYTPVSSTNEKDMYSFLEDMGLKAFTNSKIRKPKMCPQLEQYEMHGPEGLRVGGARGLEGFYESDVMGRGHARLVHVEEPHTKLRKYFPETWIWDLVVVNSAGVAEVGVTVPDTITEWKAGAFCLSEDAGLGISSTASLRAFQPFFVELTMPYSVIRGEAFTLKATVLNYLPKCIRVSVQLEASPAFLAVPVEKEQAPHCICANGRQTVSWAVTPKSLGNVNFTVSAEALESQELCGTEVPSVPEHGRKDTVIKPLLVEPEGLEKETTFNSLLCPSGGEVSEELSLKLPPNVVEESARASVSVLGDILGSAMQNTQNLLQMPYGCGEQNMVLFAPNIYVLDYLNETQQLTPEIKSKAIGYLNTGYQRQLNYKHYDGSYSTFGERYGRNQGNTWLTAFVLKTFAQARAYIFIDEAHITQALIWLSQRQKDNGCFRSSGSLLNNAIKGGVEDEVTLSAYITIALLEIPLTVTHPVVRNALFCLESAWKTAQEGDHGSHVYTKALLAYAFALAGNQDKRKEVLKSLNEEAVKKDNSVHWERPQKPKAPVGHFYEPQAPSAEVEMTSYVLLAYLTAQPAPTSEDLTSATNIVKWITKQQNAQGGFSSTQDTVVALHALSKYGAATFTRTGKAAQVTIQSSGTFSSKFQVDNNNRLLLQQVSLPELPGEYSMKVTGEGCVYLQTSLKYNILPEKEEFPFALGVQTLPQTCDEPKAHTSFQISLSVSYTGSRSASNMAIVDVKMVSGFIPLKPTVKMLERSNHVSRTEVSSNHVLIYLDKVSNQTLSLFFTVLQDVPVRDLKPAIVKVYDYYETDEFAIAEYNAPCSKDLGNADYKDDDDKGASHHHHHH

molecular target: MMP13 (human, UniProt P45452 104-471, limits assumed); test: cell-based or functional assay

Binder | Protease Inhibition (% of WT)
B1 | 156 % of WT
B2 | 173 % of WT
B3 | 1 % of WT
B4 | 119 % of WT
B5 | 116 % of WT
B6 | 79 % of WT
B7 | 120 % of WT
B8 | 148 % of WT

molecular target: T1, ADAMTS5; test: cell-based or functional assay

Binder | Protease Inhibition (% of WT)
B1 | 108 % of WT
B2 | 395 % of WT
B3 | 485 % of WT
B4 | 66 % of WT
B5 | 128 % of WT
B6 | 272 % of WT
B7 | 74 % of WT
B8 | 82 % of WT

molecular target: T2, ADAMTS4; test: cell-based or functional assay

Binder | Protease Inhibition (% of WT)
B1 | 68 % of WT
B2 | 121 % of WT
B3 | 101 % of WT
B4 | 27 % of WT
B5 | 131 % of WT
B6 | 153 % of WT
B7 | 91 % of WT
B8 | 124 % of WT
